Results from patent publication US20120202221A1 (ACTELION PHARMACEUTICALS, published 2012).

T1: recombinant human GPR1 receptor (human, UniProt P46091 1-355)
T1 sequence: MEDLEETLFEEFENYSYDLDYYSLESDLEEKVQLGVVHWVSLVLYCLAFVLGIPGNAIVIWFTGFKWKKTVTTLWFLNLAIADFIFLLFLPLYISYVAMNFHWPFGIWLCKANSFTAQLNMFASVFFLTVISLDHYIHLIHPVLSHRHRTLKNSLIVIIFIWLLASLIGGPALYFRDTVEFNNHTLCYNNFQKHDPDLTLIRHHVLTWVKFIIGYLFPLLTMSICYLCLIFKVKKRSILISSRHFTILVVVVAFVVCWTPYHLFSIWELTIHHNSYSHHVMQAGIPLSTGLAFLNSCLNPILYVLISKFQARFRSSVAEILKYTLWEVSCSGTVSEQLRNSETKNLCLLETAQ


These molecules were tested against T1, recombinant human GPR1 receptor (assay: cell-based or functional assay).

| Molecule | EC50 of beta-arrestin2 recruitment (agonistic activity), CHO-K1-hGPR1-Beta-arrestin 2 PathHunter cells [nM] |
| --- | --- |
| MAPRGFSCLLLLTGEIDLPVKRRA [Gly14-Humanin] | 46.1 |
| MAPRGFSALLLLTSEIDLPVKRRA [Ala8-Humanin] | 55.6 |

Continued, values first:

| EC50 of beta-arrestin2 recruitment (agonistic activity), CHO-K1-hGPR1-Beta-arrestin 2 PathHunter cells [nM] | Molecule |
| --- | --- |
| 92.8 | d-Ser14-Humanin (peptide) |
| 60.9 | MAPRGFSCLLLLTSEIDLPVKRRA [Humanin] |
